Broadly, the Kd is the constant that tells how readily two partners part at equilibrium. The low end stands for a tighter complex, the high end for a looser complex.

Starred links: 1 amine or outer side, 2 acyl side, 3 side chain; linkers in the order of their positions; H or OH if unused. Positions of bridges follow the written chain, without caps; N, C: chain ends. Non-standard residues stand in square brackets, D forms with d. Primed or numbered codes have the meaning given here. *: point of attachment. MeKCOpipzaa″ = (2S)-6-{[4-(carboxymethyl)piperazine-1-carbonyl]amino}-2-(methylamino)hexanoic acid, CN([C@@H](CCCCNC(=O)N1CCN(CC(=O)[*:3])CC1)C(=O)[*:2])[*:1]; DOTA‑Lu = DOTA-lutetium(175) amide on the side-chain amine, O=C([O-])CN1CCN(CC(=O)[O-])CCN(CC(=O)*)CCN(CC(=O)[O-])CC1.[175Lu+3]; F4aao(4) = 4-(carboxymethoxy)phenylalanine, O=C([C@H](Cc1ccc(OCC(=O)[*:3])cc1)N[*:1])[*:2]; MeHseMe(5) = N-methyl-O-methyl-homoserine, COCC[C@@H](C(=O)[*:2])N(C)[*:1]; MeHseMe = N-methyl-O-methyl-L-homoserine, COCC[C@@H](C(=O)[*:2])N(C)[*:1]; Thr(Me)(3) = TMe, O-methyl-L-threonine, CO[C@H](C)[C@H](N[*:1])C(=O)[*:2]; TMe″ = O-methyl-threonine, CO[C@H](C)[C@H](N[*:1])C(=O)[*:2]; NMeAla(isoquinolin-7-yl) = CN[C@@H](Cc1ccc2ccncc2c1)C(=O)O; 3Pal(6-Ph) = N[C@@H](Cc1ccc(-c2ccccc2)nc1)C(=O)O; Phe(4-COOH) = N[C@@H](Cc1ccc(C(=O)O)cc1)C(=O)O; NMeI = CC[C@H](C)[C@H](NC)C(=O)O; NMeQ = CN[C@@H](CCC(N)=O)C(=O)O; NMeK = CN[C@@H](CCCCN)C(=O)O; NMeC = CN[C@@H](CS)C(=O)O

To fix the notation:
B1: Macrocyclic peptide of Example 2-57 (SEQ ID No. 1) (peptide)
peptide: {CH2CO}-[NMeK][NMeI]D[NMeQ][Phe(4-COOH)]IIY[NMeAla(isoquinolin-7-yl)]G[3Pal(6-Ph)][NMeC]-NH2
modifications: thioether N-12
SMILES: CC[C@H](C)[C@@H]1NC(=O)[C@H](Cc2ccc(C(=O)O)cc2)NC(=O)[C@H](CCC(N)=O)N(C)C(=O)[C@H](CC(=O)O)NC(=O)[C@H]([C@@H](C)CC)N(C)C(=O)[C@H](CCCCN)N(C)C(=O)CSC[C@@H](C(N)=O)N(C)C(=O)[C@H](Cc2ccc(-c3ccccc3)nc2)NC(=O)CNC(=O)[C@H](Cc2ccc3ccncc3c2)N(C)C(=O)[C@H](Cc2ccc(O)cc2)NC(=O)[C@H]([C@@H](C)CC)NC1=O
B2: Macrocyclic peptide of Example 2-4 (SEQ ID No. 7) (peptide)
peptide: {CH2CO}-[NMeK](Ac)[NMeI]D[NMeQ][Phe(4-COOH)]IIY[NMeAla(isoquinolin-7-yl)]G[3Pal(6-Ph)][NMeC]-NH2
modifications: thioether N-12
SMILES: CC[C@H](C)[C@@H]1NC(=O)[C@H](Cc2ccc(C(=O)O)cc2)NC(=O)[C@H](CCC(N)=O)N(C)C(=O)[C@H](CC(=O)O)NC(=O)[C@H]([C@@H](C)CC)N(C)C(=O)[C@H](CCCCNC(C)=O)N(C)C(=O)CSC[C@@H](C(N)=O)N(C)C(=O)[C@H](Cc2ccc(-c3ccccc3)nc2)NC(=O)CNC(=O)[C@H](Cc2ccc3ccncc3c2)N(C)C(=O)[C@H](Cc2ccc(O)cc2)NC(=O)[C@H]([C@@H](C)CC)NC1=O
B3: Macrocyclic peptide of Example 2-27 (SEQ ID No. 35) (peptide)
peptide: KQDQFTIFFGXC
modifications: MeK-MeQ-D-MeQ-F4COO-TMe-I-F4aao-MeNal27N-G-3Py6Ph-MeC-NH2; thioether ring from N-terminal acetyl to MeC12
B4: Macrocyclic peptide of Example 2-24 (SEQ ID No. 58) (peptide)
peptide: {CH2CO}-[MeKCOpipzaa″][MeHseMe]D[NMeQ][Phe(4-COOH)][Thr(Me)(3)]IY[NMeAla(isoquinolin-7-yl)]G[3Pal(6-Ph)][NMeC]-NH2
modifications: thioether N-12
SMILES: CC[C@H](C)[C@@H]1NC(=O)[C@H]([C@@H](C)OC)NC(=O)[C@H](Cc2ccc(C(=O)O)cc2)NC(=O)[C@H](CCC(N)=O)N(C)C(=O)[C@H](CC(=O)O)NC(=O)[C@H](CCOC)N(C)C(=O)[C@H](CCCCNC(=O)N2CCN(CC(=O)O)CC2)N(C)C(=O)CSC[C@@H](C(N)=O)N(C)C(=O)[C@H](Cc2ccc(-c3ccccc3)nc2)NC(=O)CNC(=O)[C@H](Cc2ccc3ccncc3c2)N(C)C(=O)[C@H](Cc2ccc(O)cc2)NC1=O

The target in the test is T1, Human Glypican3-Fc (ACRO Biosystems, GP3-H5258) (human, UniProt P51654 25-559).
T1 construct: Bought fusion protein, captured in Methods B-2, B-3 and B-4; Catalogue number is printed only in Method B-2; not shown: Fc part of the bought fusion
The test is described as follows: SPR (Biacore T200), Method B-3: Glypican3-Fc captured on Protein A chip, peptide as analyte. On the procedure:
A Protein A sensor chip (Cytiva) was inserted into a Biacore T200 (Cytiva), priming was performed three times with a running buffer: HBS-P+, pH 7.4 (Cytiva), and equilibration was carried out at a flow rate of 30 μL/min. Glypican3-Fc was allowed to react for 60 seconds at a flow rate of 10 μL/min. After capturing human Glypican3-Fe, a peptide solution prepared to 10 mM in DMSO solution was diluted with a running buffer to a final concentration of 10 μM. […] Using the above samples, peptide kinetics for Glypican3 was obtained by SPR measurement. Kinetics evaluation of Glypican3 was performed by SPR measurements at a flow rate of 10 LL/min, setting the association time to 120 seconds and the disassociation time to 600 seconds.
The obtained data by Method B-1, Method B-2, Method B-3 and Method B-4 were analyzed by follow. Single Cycle Kinetics was used as the kinetics evaluation model, and curve fitting was performed using Biacore T200 Evaluation Software Version 3.0 (Cytiva).
(Surface plasmon resonance follows binding to a sensor surface in real time, without labels.)
For Ac-[NMeK](DOTA‑Lu)[NMeI]D[NMeQ][Phe(4-COOH)][TMe″]IY[NMeAla(isoquinolin-7-yl)]G[3Pal(6-Ph)][NMeC]-NH2 (bridge N-12; not fully specified (bridges); also: DOTA-Lu: cold Lu-175 complex) [Lu-C-62], binding was put at a Kd of 0.15 nM.
To B1 belongs 0.17 nM; to Ac-[NMeK](DOTA‑Lu)[MeHseMe(5)]D[NMeQ][Phe(4-COOH)]IIY[NMeAla(isoquinolin-7-yl)]G[3Pal(6-Ph)][NMeC]-NH2 (bridge N-12; not fully specified (bridges); also: cold Lu-175 chelated by DOTA) [Lu-C-72], 0.36 nM.
To B2 belongs 0.3 nM; to B3, 1.1 nM.
For B4 the value was 0.5 nM; for Ac-[NMeK](DOTA‑Lu)[NMeI]D[NMeQ][Phe(4-COOH)]II[F4aao(4)][NMeAla(isoquinolin-7-yl)]G[3Pal(6-Ph)][NMeC]-NH2 (bridge N-12; not fully specified (bridges); also: DOTA-Lu: cold Lu-175 complex) [Lu-C-64], 0.53 nM.

Values taken from patent publication US20260241049A1, “Radiopharmaceutical Compositions Targeting Glypican-3 and Uses Thereof” (RayzeBio, Inc., priority 2023, published 2026).
